For 22 sequences, self-aminoacylation results are on record in the supplement of paper PMC9233669.

Fewer inactive variants are shown than the library holds.

For data set [1], the system named is biotinyl-Phe-oxazolone. The data set is described as follows: self-aminoacylation, catalytic enhancement (BFO) (fold over background); higher = more active; k-Seq, kA / k0A0; sequences stand for … in GGGAAUGGAUCCACAUCUACGAAUUC…UUCACUGCAGACUUGACGAAGCUG
An outline of the steps: (§1)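 Each biotinyl-aminoacyl-oxazolone, at 2–1250 μM, was incubated with mutagenized RNA pools (0.43 μM) carrying a 21-nt variable region. The 50 μL reactions contained HEPES/NaCl/KCl/MgCl2/CaCl2 buffer with 5% acetonitrile at pH 6.9–7.0 and ran for 90 minutes at room temperature. After streptavidin capture, RNA was measured by qPCR in triplicate and by Illumina sequencing, and catalytic enhancement was calculated as median kA over the uncatalyzed rate from a pseudo-first-order fit of per-sequence fraction reacted.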

The test system of data set [2] is biotinyl-Met-oxazolone. The data set is described as follows: self-aminoacylation, catalytic enhancement (BMO) (fold over background); higher = more active; k-Seq, kA / k0A0; sequences stand for … in GGGAAUGGAUCCACAUCUACGAAUUC…UUCACUGCAGACUUGACGAAGCUG
In outline:
as §1

For data set [3], the system named is biotinyl-Ile-oxazolone. Description: self-aminoacylation, catalytic enhancement (BIO) (fold over background); higher = more active; k-Seq, kA / k0A0; sequences stand for … in GGGAAUGGAUCCACAUCUACGAAUUC…UUCACUGCAGACUUGACGAAGCUG
An outline of the steps:
as §1

For data set [4], the system named is biotinyl-Val-oxazolone. Description: self-aminoacylation, catalytic enhancement (BVO) (fold over background); higher = more active; k-Seq, kA / k0A0; sequences stand for … in GGGAAUGGAUCCACAUCUACGAAUUC…UUCACUGCAGACUUGACGAAGCUG
An outline of the steps: as §1

Data set [5] has as its system biotinyl-Leu-oxazolone. The data set is described as follows: self-aminoacylation, catalytic enhancement (BLO) (fold over background); higher = more active; k-Seq, kA / k0A0; sequences stand for … in GGGAAUGGAUCCACAUCUACGAAUUC…UUCACUGCAGACUUGACGAAGCUG
An outline of the steps: as §1

Data set [6] concerns biotinyl-Trp-oxazolone. The data set is described as follows: self-aminoacylation, catalytic enhancement (BWO) (fold over background); higher = more active; k-Seq, kA / k0A0; sequences stand for … in GGGAAUGGAUCCACAUCUACGAAUUC…UUCACUGCAGACUUGACGAAGCUG
In outline: as §1

Turning to “AUUACCCUGGUCAUAGUGUGA [Fam2.1 aminoacylation ribozyme variant]”, the self-aminoacylation in data set [1] stood at 0.987; in data set [2], 1.12; in data set [3], 0.955; in data set [4], 0.977; in data set [5], 0.978; in data set [6] it was 0.799.
For the sequence “CCACACUUCAAGCAAUCGCUG [Fam1B.1 aminoacylation ribozyme variant]”, the self-aminoacylation in data set [1] is 0.653; in data set [2], 1.13; in data set [3], 1.22; in data set [4], 1.12; in data set [5] it was 0.928; in data set [6] it was 0.872.
Regarding “AUUACCCUGGUCAGCGAGUGA [Fam2.1 aminoacylation ribozyme variant]”, the self-aminoacylation in data set [1] worked out at 16.6; in data set [2], 4.42; in data set [3], 2.92; in data set [4], 3.01; in data set [5], 4.71; in data set [6] it was 5.36.
Consider “AUUACUCUGGACAUCGAGUGA [Fam2.1 aminoacylation ribozyme variant]”, for which the self-aminoacylation in data set [1] worked out at 30.9; in data set [2] it was 5.55; in data set [3], 2.93; in data set [4], 2.83; in data set [5], 6.1; in data set [6] it was 8.33.
On to “AUUCACUUAGGUCAUUGGGUG [Fam2.2 aminoacylation ribozyme variant]”, for which the self-aminoacylation worked out at 25.2 in data set [1]; 3.64 in data set [2]; 2.3 in data set [3]; 2.39 in data set [4]; 4.48 in data set [5]; 3.76 in data set [6].
In the case of “AUUACCCUGGUCAUCGAGUCU [Fam2.1 aminoacylation ribozyme variant]”, the self-aminoacylation stood at 0.56 in data set [1]; 0.784 in data set [2]; 0.697 in data set [3]; 0.901 in data set [4]; 0.712 in data set [5]; 0.846 in data set [6].
In the case of “AUUAACCUGGUCAUCUAGUGA [Fam2.1 aminoacylation ribozyme variant]”, the self-aminoacylation in data set [1] is 52.4; in data set [2] it was 9.41; in data set [3], 4.57; in data set [4], 4.53; in data set [5], 9.7; in data set [6], 11.1.
With “CCAGAAUUCAAGCAAUCGGUC [Fam1B.1 aminoacylation ribozyme variant]”, the self-aminoacylation in data set [1] was found to be 2.26; in data set [2], 1.65; in data set [3], 1.91; in data set [4], 1.6; in data set [5], 2.3; in data set [6], 1.81.
In the case of “AUUCACCUAUGUCAUCCGGUG [Fam2.2 aminoacylation ribozyme variant]”, the self-aminoacylation in data set [1] stood at 37.6; in data set [2], 5.26; in data set [3], 3.78; in data set [4] it was 3.51; in data set [5], 7.19; in data set [6], 5.69.
As to “CUACUUGAAACAAUCUGUCUG [Fam1A.1 aminoacylation ribozyme variant]”, the self-aminoacylation amounted to 0.472 in data set [1]; 0.747 in data set [2]; 0.655 in data set [3]; 0.657 in data set [4]; 0.636 in data set [5]; 0.496 in data set [6].
Take “AUUCACCGAGGUCAUCGGGUU [Fam2.2 aminoacylation ribozyme variant]”: the self-aminoacylation in data set [1] is 9.59; in data set [2] it was 2.61; in data set [3], 2.26; in data set [4], 2.84; in data set [5], 3.15; in data set [6], 2.7.
Regarding “AGUACCCUGGACAUCGAGUGA [Fam2.1 aminoacylation ribozyme variant]”, the self-aminoacylation in data set [1] was 21.2; in data set [2], 5.06; in data set [3], 2.69; in data set [4] it was 2.8; in data set [5], 6.32; in data set [6] it was 5.83.
On to “AUUACCCUGGACAUCGACUGA [Fam2.1 aminoacylation ribozyme variant]”, for which the self-aminoacylation in data set [1] is 0.713; in data set [2], 0.616; in data set [3] it was 0.543; in data set [4], 0.626; in data set [5], 0.529; in data set [6], 0.238.
For the sequence “AAUGCCCUGGUCAUCGAGUGA [Fam2.1 aminoacylation ribozyme variant]”, the self-aminoacylation was 33.9 in data set [1]; 9.57 in data set [2]; 4.61 in data set [3]; 5.85 in data set [4]; 9.96 in data set [5]; 11.8 in data set [6].
Regarding “AGUACCCUGGUCAUCGGGUGA [Fam2.1 aminoacylation ribozyme variant]”, the self-aminoacylation came out at 82.1 in data set [1]; 17.7 in data set [2]; 9.32 in data set [3]; 9.99 in data set [4]; 19 in data set [5]; 19.6 in data set [6].
With “AUUACCCUGGACAUCCAGUGA [Fam2.1 aminoacylation ribozyme variant]”, the self-aminoacylation amounted to 15.9 in data set [1]; 3.32 in data set [2]; 2.61 in data set [3]; 2.51 in data set [4]; 3.82 in data set [5]; 4.13 in data set [6].
Regarding “CUACUUCAAAUAAUCGGUCAG [Fam1A.1 aminoacylation ribozyme variant]”, the self-aminoacylation in data set [1] amounted to 6.75; in data set [2], 0.675; in data set [3] it was 0.755; in data set [4], 0.83; in data set [5] it was 0.708; in data set [6], 3.24.
For “AUUACCCUGCUCAUCGAGUCA [Fam2.1 aminoacylation ribozyme variant]”, the self-aminoacylation in data set [1] was 0.452; in data set [2], 0.64; in data set [3], 0.779; in data set [4] it was 0.819; in data set [5] it was 0.646; in data set [6] it was 0.425.
Turning to “GAGUUUGCUAAUAGUCGUAAG [Fam3.1 aminoacylation ribozyme variant]”, the self-aminoacylation is 30.8 in data set [1]; 1.4 in data set [2]; 1.4 in data set [3]; 1.17 in data set [4]; 1.28 in data set [5]; 8.52 in data set [6].
With “AUUCCCCUAGGUCACCGGGUG [Fam2.2 aminoacylation ribozyme variant]”, the self-aminoacylation is 163 in data set [1]; 20.3 in data set [2]; 13.9 in data set [3]; 13.4 in data set [4]; 26.2 in data set [5]; 21.7 in data set [6].
As for “AUUACCCAGGUCAUCUAGUGA [Fam2.1 aminoacylation ribozyme variant]”, the self-aminoacylation in data set [1] was found to be 59.3; in data set [2], 10.7; in data set [3] it was 4.62; in data set [4] it was 5.97; in data set [5] it was 9.76; in data set [6] it was 12.2.
As for “AUUCACCUAGGUCCUCGGCUG [Fam2.2 aminoacylation ribozyme variant]”, the self-aminoacylation in data set [1] turned out to be 8.15; in data set [2] it was 2.07; in data set [3] it was 2.51; in data set [4], 2.25; in data set [5], 2.6; in data set [6], 2.67.
